Results on one substance are retold here after US20160136234A1.

Some targets named below: DAPK2 (h) (human) (UniProt Q9UIK4); EphB4 (h) (human) (UniProt P54760); ErbB4 (h) (human) (UniProt Q15303); GRK6 (h) (human) (UniProt P43250); IRAK1 (h) (human) (UniProt P51617); MSK2 (h) (human) (UniProt O75676); PDGFRβ (h) (human) (UniProt P09619); PKCθ (h) (human) (UniProt Q04759); SRPK1 (h) (human) (UniProt Q96SB4); cKit(D816H) (h) (human) (UniProt P10721).
What all share (assay): cell-based or functional assay
A further test has as its target T1, ALK4 (h) (human) (UniProt P36896).
T1 sequence (looked up): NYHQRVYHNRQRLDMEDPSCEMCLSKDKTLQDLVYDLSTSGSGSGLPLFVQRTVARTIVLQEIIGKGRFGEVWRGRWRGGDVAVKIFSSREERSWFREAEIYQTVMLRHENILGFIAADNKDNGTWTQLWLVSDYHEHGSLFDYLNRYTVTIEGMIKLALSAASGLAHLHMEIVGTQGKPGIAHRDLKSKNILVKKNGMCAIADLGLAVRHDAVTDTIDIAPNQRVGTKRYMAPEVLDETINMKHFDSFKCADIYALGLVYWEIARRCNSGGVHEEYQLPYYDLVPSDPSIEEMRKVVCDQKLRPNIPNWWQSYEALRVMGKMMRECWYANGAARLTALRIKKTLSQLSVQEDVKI

The next test addresses T2, Aurora-A (h) (human) (UniProt O14965).
T2 sequence (looked up): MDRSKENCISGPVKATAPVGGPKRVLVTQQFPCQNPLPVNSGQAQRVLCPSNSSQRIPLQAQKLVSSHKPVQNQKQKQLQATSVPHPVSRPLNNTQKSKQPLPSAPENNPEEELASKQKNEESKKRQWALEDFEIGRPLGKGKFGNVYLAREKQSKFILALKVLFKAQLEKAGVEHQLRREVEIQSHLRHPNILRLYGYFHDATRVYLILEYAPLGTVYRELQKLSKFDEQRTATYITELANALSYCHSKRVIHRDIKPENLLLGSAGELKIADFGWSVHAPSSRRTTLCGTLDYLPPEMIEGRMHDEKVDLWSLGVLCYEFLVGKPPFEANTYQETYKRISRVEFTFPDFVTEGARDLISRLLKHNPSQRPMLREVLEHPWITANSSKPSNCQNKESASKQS

Test [1] deals with CDK6/cyclinD3 (h) (human) (UniProt Q00534).
Chain of CDK6/cyclinD3 (h) (human) (Q00534 whole entry, chain 1 of 2): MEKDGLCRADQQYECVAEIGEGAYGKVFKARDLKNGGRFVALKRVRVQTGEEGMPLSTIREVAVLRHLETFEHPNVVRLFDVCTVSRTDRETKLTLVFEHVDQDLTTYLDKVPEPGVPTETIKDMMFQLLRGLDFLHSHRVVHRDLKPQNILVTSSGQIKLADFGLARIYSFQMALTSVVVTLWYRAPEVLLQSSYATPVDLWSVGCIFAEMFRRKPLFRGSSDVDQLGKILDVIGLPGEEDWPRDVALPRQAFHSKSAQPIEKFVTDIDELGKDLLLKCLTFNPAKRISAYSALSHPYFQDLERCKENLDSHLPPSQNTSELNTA
Chain of CDK6/cyclinD3 (h) (human) (P30281 whole entry, chain 2 of 2, further chain): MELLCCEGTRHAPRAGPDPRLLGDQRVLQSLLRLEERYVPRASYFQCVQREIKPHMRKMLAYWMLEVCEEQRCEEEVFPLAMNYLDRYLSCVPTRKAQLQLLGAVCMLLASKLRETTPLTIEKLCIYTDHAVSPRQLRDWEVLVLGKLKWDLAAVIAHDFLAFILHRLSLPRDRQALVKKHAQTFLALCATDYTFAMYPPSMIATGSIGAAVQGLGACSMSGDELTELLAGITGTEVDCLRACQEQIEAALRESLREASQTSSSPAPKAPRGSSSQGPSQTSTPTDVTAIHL
A further test concerns the target T3, Fms(Y969C) (h) (human) (UniProt P07333).
T3 sequence (looked up): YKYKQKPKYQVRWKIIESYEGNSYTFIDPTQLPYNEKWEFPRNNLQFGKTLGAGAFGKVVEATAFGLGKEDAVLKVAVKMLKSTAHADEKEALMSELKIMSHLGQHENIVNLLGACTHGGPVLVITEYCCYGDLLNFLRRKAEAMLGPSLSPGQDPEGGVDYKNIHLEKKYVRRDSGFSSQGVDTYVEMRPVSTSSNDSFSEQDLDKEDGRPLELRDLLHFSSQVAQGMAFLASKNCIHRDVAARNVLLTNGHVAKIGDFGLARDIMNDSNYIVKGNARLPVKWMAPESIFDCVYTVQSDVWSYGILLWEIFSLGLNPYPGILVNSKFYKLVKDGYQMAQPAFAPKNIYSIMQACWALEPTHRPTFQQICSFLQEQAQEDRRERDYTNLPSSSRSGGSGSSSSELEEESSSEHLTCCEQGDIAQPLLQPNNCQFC

The target in test [2] is Lck (h) activated (human) (UniProt P06239).
The next test concerns the target T4, SGK2 (h) (human) (UniProt Q9HBY8).
T4 sequence (looked up): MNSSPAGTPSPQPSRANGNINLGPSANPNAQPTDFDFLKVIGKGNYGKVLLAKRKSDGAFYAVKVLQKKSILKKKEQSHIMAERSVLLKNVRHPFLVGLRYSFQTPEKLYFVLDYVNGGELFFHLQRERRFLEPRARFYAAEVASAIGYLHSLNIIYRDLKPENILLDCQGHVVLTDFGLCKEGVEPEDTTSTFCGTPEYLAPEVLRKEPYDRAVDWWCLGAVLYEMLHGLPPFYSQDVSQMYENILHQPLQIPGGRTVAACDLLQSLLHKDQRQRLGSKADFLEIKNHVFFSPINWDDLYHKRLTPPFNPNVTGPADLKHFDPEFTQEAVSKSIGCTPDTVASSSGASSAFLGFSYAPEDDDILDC

The next test concerns the target T5, eEF-2K (h) (human) (UniProt O00418).
T5 sequence (looked up): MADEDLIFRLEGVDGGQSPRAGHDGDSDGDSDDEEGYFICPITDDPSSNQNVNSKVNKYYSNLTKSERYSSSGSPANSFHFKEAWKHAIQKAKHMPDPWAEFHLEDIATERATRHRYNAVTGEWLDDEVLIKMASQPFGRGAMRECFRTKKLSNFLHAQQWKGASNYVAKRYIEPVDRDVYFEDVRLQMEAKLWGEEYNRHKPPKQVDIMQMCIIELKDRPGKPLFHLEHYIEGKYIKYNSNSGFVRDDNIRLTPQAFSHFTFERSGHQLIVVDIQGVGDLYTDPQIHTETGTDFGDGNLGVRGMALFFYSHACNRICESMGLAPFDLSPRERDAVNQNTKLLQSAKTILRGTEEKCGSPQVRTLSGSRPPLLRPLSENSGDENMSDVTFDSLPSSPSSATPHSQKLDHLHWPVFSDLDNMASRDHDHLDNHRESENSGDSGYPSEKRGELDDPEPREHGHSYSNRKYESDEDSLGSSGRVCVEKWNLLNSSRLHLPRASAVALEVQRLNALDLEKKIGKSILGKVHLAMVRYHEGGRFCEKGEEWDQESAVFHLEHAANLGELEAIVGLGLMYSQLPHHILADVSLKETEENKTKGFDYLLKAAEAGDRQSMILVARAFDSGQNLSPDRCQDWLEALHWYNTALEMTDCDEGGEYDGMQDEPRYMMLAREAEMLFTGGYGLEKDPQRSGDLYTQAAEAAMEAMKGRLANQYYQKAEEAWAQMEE

Chain of PDGFRβ (h) (human) (P09619 557-1106 limits assumed): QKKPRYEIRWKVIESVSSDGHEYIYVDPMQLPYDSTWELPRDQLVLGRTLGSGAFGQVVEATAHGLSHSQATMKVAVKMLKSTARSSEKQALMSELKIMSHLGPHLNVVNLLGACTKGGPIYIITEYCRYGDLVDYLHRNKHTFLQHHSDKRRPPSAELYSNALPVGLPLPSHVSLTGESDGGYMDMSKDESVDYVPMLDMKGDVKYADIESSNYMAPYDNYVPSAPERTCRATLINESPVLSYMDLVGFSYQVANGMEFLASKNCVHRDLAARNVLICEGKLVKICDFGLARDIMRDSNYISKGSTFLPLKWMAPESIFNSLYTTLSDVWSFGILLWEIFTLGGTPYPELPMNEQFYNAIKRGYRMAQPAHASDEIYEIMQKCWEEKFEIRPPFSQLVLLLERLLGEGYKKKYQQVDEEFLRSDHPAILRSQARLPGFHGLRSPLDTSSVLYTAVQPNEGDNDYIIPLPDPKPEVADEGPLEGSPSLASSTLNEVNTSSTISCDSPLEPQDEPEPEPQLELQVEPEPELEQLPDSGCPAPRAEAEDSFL
Chain of cKit(D816H) (h) (human) (P10721 544-976 D816H): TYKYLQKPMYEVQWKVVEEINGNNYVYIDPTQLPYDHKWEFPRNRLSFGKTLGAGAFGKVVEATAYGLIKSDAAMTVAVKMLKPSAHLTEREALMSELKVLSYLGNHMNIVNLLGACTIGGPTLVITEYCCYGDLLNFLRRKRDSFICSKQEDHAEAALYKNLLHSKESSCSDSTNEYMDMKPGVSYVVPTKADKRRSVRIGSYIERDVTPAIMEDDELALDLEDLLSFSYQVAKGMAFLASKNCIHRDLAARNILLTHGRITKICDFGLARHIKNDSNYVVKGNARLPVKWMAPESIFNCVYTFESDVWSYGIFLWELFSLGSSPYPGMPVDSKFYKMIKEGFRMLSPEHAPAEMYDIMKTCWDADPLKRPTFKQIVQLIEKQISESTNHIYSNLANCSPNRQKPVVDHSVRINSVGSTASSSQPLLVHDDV
Chain of EphB4 (h) (human) (P54760 561-987 limits assumed): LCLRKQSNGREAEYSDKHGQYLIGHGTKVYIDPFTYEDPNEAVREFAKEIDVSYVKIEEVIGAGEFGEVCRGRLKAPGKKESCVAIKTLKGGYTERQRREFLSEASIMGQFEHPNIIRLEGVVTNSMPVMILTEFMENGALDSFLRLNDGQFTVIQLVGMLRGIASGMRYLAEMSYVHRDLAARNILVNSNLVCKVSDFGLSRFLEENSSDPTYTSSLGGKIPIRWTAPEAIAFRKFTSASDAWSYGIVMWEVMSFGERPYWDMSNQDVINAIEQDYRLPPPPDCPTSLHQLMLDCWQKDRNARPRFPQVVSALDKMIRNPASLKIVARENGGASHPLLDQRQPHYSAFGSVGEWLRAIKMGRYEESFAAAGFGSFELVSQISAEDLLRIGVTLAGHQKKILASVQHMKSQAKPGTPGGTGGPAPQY
Chain of ErbB4 (h) (human) (Q15303 706-991 limits assumed): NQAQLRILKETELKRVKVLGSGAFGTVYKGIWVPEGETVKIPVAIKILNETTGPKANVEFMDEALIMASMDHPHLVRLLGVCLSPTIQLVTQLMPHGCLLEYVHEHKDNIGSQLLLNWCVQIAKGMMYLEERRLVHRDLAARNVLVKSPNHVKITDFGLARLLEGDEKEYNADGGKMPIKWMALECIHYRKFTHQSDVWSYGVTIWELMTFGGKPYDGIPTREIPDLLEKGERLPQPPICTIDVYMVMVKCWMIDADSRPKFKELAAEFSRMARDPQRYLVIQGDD

Take MMI-0300 (peptide): the % activity at 100 µM was determined as 140% in the test with ALK4 (h) (human); 92% in the test with Aurora-A (h) (human); 86% in test [1]; 32% with DAPK2 (h) (human); 44% with EphB4 (h) (human); 40% with ErbB4 (h) (human). For the same substance, the % activity at 100 µM with Fms(Y969C) (h) (human) came out at 72%; with GRK6 (h) (human), 147%; in the test with IRAK1 (h) (human), 95%; in test [2] it was 243%; with MSK2 (h) (human), 56%; with PDGFRβ (h) (human), 81%. For the same substance, the % activity at 100 µM came to 88% with PKCθ (h) (human); 56% with SGK2 (h) (human); 90% with SRPK1 (h) (human); 126% with cKit(D816H) (h) (human); 91% in the test with eEF-2K (h) (human).
